What was measured:
[1] = tested on: target antigen-expressing cell line; assay: Jurkat NFAT-GFP assay, coculture with target cell lines expressing the respective target antigen (summary Table 10A); type: cell-based, human; parameters: key: The signs +/−, +, 2+ etc. after the name of the cell lines indicate the relative degree of positivity on the Jurkat-NFAT-GFP assay as measured by the % GFP positive cells; +: relative degree of positivity on the Jurkat-NFAT-GFP assay as measured by the % GFP positive cells; 2+: relative degree of positivity on the Jurkat-NFAT-GFP assay as measured by the % GFP positive cells
Method in brief: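 Jurkat cells carrying an NFAT-site IL-2 promoter driving GFP were lentivirally transduced with SIRs, puromycin-selected, then cocultured with antigen-expressing target cells at E:T about 1:2 for about 4–18 hours. GFP induction was read by flow cytometry as % GFP-positive cells versus parental Jurkat-NFAT-GFP.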

[2] = tested on: SKOV-3 cells; assay: SKOV-3 intraperitoneal xenograft in NSG mice (survival); type: in vivo; conditions: NSG mice (n = 3), 1×10^6 SKOV-3 cells intraperitoneally, 5 million T cells intravenously
Procedure: Human peripheral blood T cells isolated using CD3 magnetic beads were infected with lentiviruses expressing the indicated SIR constructs targeting Folate receptor 1 (FR1), L1CAM and Epcam1. On day 1, the NSG mice were sub-lethally irradiated at a dose of 175 cGy. 24 hours post irradiation (day 2), mice were injected with 1×10^6 SKOV-3 cells intraperitoneally. On day 3, the mice were treated intravenously with 5 million indicated CAR-T cells. Beginning On day 4, mice were injected with human IL-2 i.p. at a dose of 400 IU/mice every alternate day after the injection CAR-T cells till the death of all mice in control group.

[3] = FACS detection of CARs and SIRs by Myc and Protein L staining (cell surface expression); type: cell-based, human; conditions: staining with APC-conjugated Protein-L, Jurkat-NFAT-GFP cells
Procedure: FACS analysis. Mouse Anti-Human c-Myc APC-conjugated Monoclonal Antibody (Catalog #IC3696A) was from R&D Systems (Minneapolis, MN). Biotinylated protein L was purchased from GeneScript (Piscataway, NJ), reconstituted in phosphate buffered saline (PBS) at 1 mg/ml and stored at 4° C. Streptavidin-APC (SA1005) was purchased from ThermoFisher Scientific.
For detection of CARs and SIRs using Myc staining, 1×10^6 cells were harvested and washed three times with 3 ml of ice-cold 1×PBS containing 4% bovine serum albumin (BSA) wash buffer. After wash, cells were resuspended in 0.1 ml of the ice-cold wash buffer containing 10 μl of APC-conjugated Myc antibody and incubated in dark for 1 hour followed by two washings with ice cold wash buffer.
For detection of CARs and SIRs using Protein L staining, 1×10^6 cells were harvested and washed three times with 3 ml of ice-cold 1×PBS containing 4% bovine serum albumin (BSA) wash buffer. After wash, cells were resuspended in 0.1 ml of the ice-cold wash buffer containing 1 μg of protein L at 4° C. for 1 hour. Cells were washed three times with ice-cold wash buffer, and then incubated (in the dark) with 10 μl of APC-conjugated streptavidin in 0.1 ml of the wash buffer for 30 minutes followed by two washings with ice cold wash buffer. FACS was done using FACSVerse analyzer from BD Biosciences.

[4] = tested on: RAJI cells; assay: Jurkat NFAT-GFP assay, coculture with RAJI cells; type: cell-based, human; conditions: GFP expression upon 18 hour co-culture with RAJI cells; Table 10B
Procedure: (B) Induction of NFAT promoter driven GFP expression. The control vector- and SIR-expressing Jurkat-NFAT-GFP cocultured for 4-24 hours with the target antigen-expressing cell line (described above) and their ability to bind to the target antigen is assayed by measuring induction of GFP expression using Flow Cytometry. Cellular supernatant is collected and assayed for the induction of cytokines (e.g., IL2).
Jurkat NFAT-GFP Assay For Synthetic Immune Receptors. The Jurkat-NFAT-GFP cells are engineered in such a way that the IL-2 promoter, which carries NFAT binding sites, is cloned upstream of the GFP gene. These cells have been used to study signaling via TCR and CAR. The different SIRs were stably expressed in Jurkat NFAT-GFP cells by lentiviral mediated gene transfer, followed by selection with puromycin. The SIR-expressing Jurkat-NFAT-GFP cells were cocultured with the target cells at E:T ratio of approximately 1:2 for approximately 4 hours to 18 hours. When the interaction between SIRs and their target antigen results in activation of the NFAT pathway, GFP expression is induced.
Induction of GFP expression by coculturing of Jurkat-NFAT-GFP cells expressing different SIR constructs and the different target cells was studied essentially as described previously (Wu, Roybal, Puchner, Onuffer, & Lim, 2015). GFP expression was monitored by FACS analysis. […] In panel B, Jurkat cells expressing SIR targeting CDH6 (Clone ID: 051716-J05), CD276 (Clone ID: 050516-Q06) and Her2/neu (Clone ID: 050516-I03) were incubated with SKOV3 (top) and […] (middle and bottom) cells, respectively. […] The Jurkat-NFAT-GFP cells were engineered to express different SIRs targeting other antigens and the experiment repeated upon coculture with the target cells expressing their respective target antigen. The Jurkat-NFAT-GFP (parental) cells were used as control. […] The names of different SIRs, their SEQ ID NOs, component antigen binding domains and TCR chains can be determined by reference to Tables 7A-7H. A SIR is considered positive in the assay in case the SIR expressing Jurkat-NFAT-GFP cells show greater % GFP positive cells when cultured with the target cell line as compared to parental Jurkat-NFAT-GFP cells. […] The signs +/−, +, 2+ etc. after the name of the cell lines indicate the relative degree of positivity on the Jurkat-NFAT-GFP assay as measured by the % GFP positive cells after culture of the SIR expressing Jurkat-NFAT-GFP cells with that cell line.

| Molecule | NFAT-GFP ASSAY Positive Cell lines ([1]; coculture with A549 cells) | NFAT-GFP ASSAY Positive Cell lines ([1]; coculture with PC3 cells) | NFAT-GFP ASSAY Positive Cell lines ([1]; coculture with SKOV3 cells) | Median Survival [2] | Prt-L-APC (%) [3] | NFAT-GFP (%) [4] | NFAT-GFP ASSAY Positive Cell lines ([1]; coculture with LoVo cells) |
| --- | --- | --- | --- | --- | --- | --- | --- |
| 121815-C05 (protein, Synthetic Immune Receptor (SIR)) MALPVTALLLPLALLLHAARPDELQMTQSPSSLSASVGDRVTITCRASQSISSYLNWYQQKPGQPPKLLIYWASTRESGVPDRFSGSESGTNYTLTISSLQPEDFATYFCQQSDSLPITFGQGTRLDIQLEGKPIPNPLLGLDSTGSGEDLKNVFPPEVAVFEPSKAEIAHTQKATLVCLATGFYPDHVELSWWVNGKEVHSGVCTDPQPLKEQPALNDSRYCLSSRLRVSATFWQNPRNHFRCQVQFYGLSENDEWTQDRAKPVTQIVSAEAWGRADCGITSASYHQGVLSATILYEILLGKATLYAVLVSALVLMAMVKRKDSRGRAKRSGSGATNFSLLKQAGDVEENPGPTSMDWIWRILFLVGAATGAHSFEEVQLLESGGGVVQPGRSLRLSCAASGFTFSSYGMHWVRQAPGKGLEWVAVISYDGSNKYYADSVKGRFTISRDNSKNTLYLQMNSLRAEDTAVYYCAKDMGWGSGWRPYYYYGMDVWGQGTTVTVSSTREQKLISEEDGSGIQNPDPAVYQLRDSKSSDKSVCLFTDFDSQTNVSQSKDSDVYITDKCVLDMRSMDFKSNSAVAWSNKSDFACANAFNNSIIPEDTFFPSSDVPCDVKLVEKSFETDTNLNFQNLSVIGFRILLLKVAGFNLLMTLRLWSSRAKRSGSGVKQTLNFDLLKLAGDVESNPGPSRGHMTEYKPTVRLATRDDVPRAVRTLAAAFADYPATRHTVDPDRHIERVTELQELFLTRVGLDIGKVWVADDGAAVAVWTTPESVEAGAVFAEIGPRMAELSGSRLAAQQQMEGLLAPHRPKEPAWFLATVGVSPDHQGKGLGSAVVLPGVEAAERAGVPAFLETSAPRNLPFYERLGFTVTADVEVPEGPRTWCMTRKPGA | A549 (2+), Hela | 2+ | (+) | 63 days |  |  |  |
| 10495 (protein) MALPVTALLLPLALLLHAARPDVVMTQSPSSLSASVGDRVTITCRASQDISKYLNWYQQKPGKAPKLLIYHTSRLHSGVPSRFSGSGSGTDFTLTISSLQPEDFATYYCQQGNTLPYTFGGGTKVEIKLEDLKNVFPPEVAVFEPCEAEISHTQKATLVCLATGFYPDHVELSWWVNGKEVHSGVSTDPQPLKEQPALNDSRYCLSSRLRVSATFWQNPRNHFRCQVQFYGLSENDEWTQDRAKPVTQIVSAEAWGRADCGFTSESYQQGVLSATILYEILLGKATLYAVLVSALVLMAMVKRKDSRGRAKRSGSGATNFSLLKQAGDVEENPGPTSMDWIWRILFLVGAATGAHSFEQVQLQESGPGLVKPSQTLSLTCTVSGVSLPDYGVSWIRQPPGKGLEWIGVIWGSETTYYNSALKSRVLISVDTSKNQVSLKLSSVTAADTAVYYCARHYYYGGSYAMDYWGQGTTVTVSSTRIQNPDPAVCQLRDSKSSDKSVCLFTDFDSQTNVSQSKDSDVYITDKTVLDMRSMDFKSNSAVAWSNKSDFACANAFNNSIIPEDTFFPSPESSCDVKLVEKSFETDTNLNFQNLSVIGFRILLLKVAGFNLLMTLRLWSS |  |  |  |  | 0% | 1.99% |  |
| 010716-G03 (protein, Synthetic Immune Receptor (SIR)) MALPVTALLLPLALLLHAARPDIQMTQSFSSLSASVGDRVTITCRASQDISNYLNWYQQKPGKAPKLLIYYTSRLHSGVPSRFSGSGSGTDYTLTISSLQPEDFATYFCQQGNTLPWTFGGGTKLEIKRLEGKPIPNPLLGLDSTGSGEDLKNVFPPEVAVFEPSKAEIAHTQKATLVCLATGFYPDHVELSWWVNGKEVHSGVCTDPQPLKEQPALNDSRYCLSSRLRVSATFWQNPRNHFRCQVQFYGLSENDEWTQDRAKPVTQIVSAEAWGRADCGITSASYHQGVLSATILYEILLGKATLYAVLVSALVLMAMVKRKDSRGRAKRSGSGATNFSLLKQAGDVEENPGPTSMDWIWRILFLVGAATGAHSFEEVQLVQSGGGLVQSGGSLRLSCRASGYTFTRYWMLWVRQRPGKGLEWVAEINPRNDRTNYNEKFKTRFTISVDRSKNTLYLQMDSLRAEDTAVYFCALGGGYAMDYWGQGTLVTVSSTREQKLISEEDGSGIQNPDPAVYQLRDSKSSDKSVCLFTDFDSQTNVSQSKDSDVYITDKCVLDMRSMDFKSNSAVAWSNKSDFACANAFNNSIIPEDTFFPSSDVPCDVKLVEKSFETDTNLNFQNLSVIGFRILLLKVAGFNLLMTLRLWSSRAKRSGSGVKQTLNFDLLKLAGDVESNPGPSRGHMTEYKPTVRLATRDDVPRAVRTLAAAFADYPATRHTVDPDRHIERVTELQELFLTRVGLDIGKVWVADDGAAVAVWTTPESVEAGAVFAEIGPRMAELSGSRLAAQQQMEGLLAPHRPKEPAWFLATVGVSPDHQGKGLGSAVVLPGVEAAERAGVPAFLETSAPRNLPFYERLGFTVTADVEVPEGPRTWCMTRKPGA | LoVo (+), A549 (+), |  |  | 63 days |  |  | LoVo (+), A549 (+), |

From patent US12269859B2, “Synthetic immune receptors and methods of use thereof” (Angeles Therapeutics, Inc., priority 2016, dated 2025)
